Consider four molecules from patent US20080219971A1 (VACCINEX, published 2008).

The target in test [1] is T1, human CD100-Fc (human, UniProt Q92854 22-734, limits assumed).
T1 construct: also called CD100-Fc antigen
T1 sequence (looked up): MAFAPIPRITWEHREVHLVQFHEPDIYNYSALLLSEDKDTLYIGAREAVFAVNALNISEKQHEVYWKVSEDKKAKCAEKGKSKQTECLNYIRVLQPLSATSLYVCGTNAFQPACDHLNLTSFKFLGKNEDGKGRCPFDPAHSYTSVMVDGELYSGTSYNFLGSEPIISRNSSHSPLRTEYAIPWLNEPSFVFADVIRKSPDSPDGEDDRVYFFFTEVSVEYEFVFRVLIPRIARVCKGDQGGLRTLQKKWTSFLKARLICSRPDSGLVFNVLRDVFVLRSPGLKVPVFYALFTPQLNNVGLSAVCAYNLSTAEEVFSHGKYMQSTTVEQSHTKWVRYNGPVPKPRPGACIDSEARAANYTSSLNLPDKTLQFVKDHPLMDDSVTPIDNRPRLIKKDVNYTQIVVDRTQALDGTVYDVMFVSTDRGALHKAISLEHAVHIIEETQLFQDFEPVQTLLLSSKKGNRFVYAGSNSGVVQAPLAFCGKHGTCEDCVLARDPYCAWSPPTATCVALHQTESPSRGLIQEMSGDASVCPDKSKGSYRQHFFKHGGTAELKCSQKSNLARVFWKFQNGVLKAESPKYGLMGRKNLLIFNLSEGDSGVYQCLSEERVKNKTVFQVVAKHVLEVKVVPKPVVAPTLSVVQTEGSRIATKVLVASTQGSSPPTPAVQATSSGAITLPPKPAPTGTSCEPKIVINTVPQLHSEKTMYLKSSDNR
Briefly: competition ELISA on CD100-Fc: BD16 titrated against 5 ng/ml MAb 657, bound MAb 657 detected with anti-human Kappa HRP. The method, then: (§1) Competition ELISA assays were then performed. The ELISA plate was coated with CD100-Fc antigen, and BD16 or BB18 were allowed to bind individually to CD100. […] The cells were washed and antibody activity detected. Bound chimeric or human MAb was detected using anti-human Kappa HRP.
(In general: An ELISA detects its analyte on a solid surface through an enzyme-linked reagent.)

Test [2] has as its target T1, human CD100-Fc. The test is described as follows: competition ELISA on CD100-Fc: BD16 titrated against 5 ng/ml MAb 301, bound MAb 301 detected with anti-human Kappa HRP. As for the experimental part:
as §1

In test [3] the target is T2, Human CD100 (human, UniProt Q92854 22-734, limits assumed).
T2 construct: also called SEMA4D; Hu CD100
T2 sequence (looked up): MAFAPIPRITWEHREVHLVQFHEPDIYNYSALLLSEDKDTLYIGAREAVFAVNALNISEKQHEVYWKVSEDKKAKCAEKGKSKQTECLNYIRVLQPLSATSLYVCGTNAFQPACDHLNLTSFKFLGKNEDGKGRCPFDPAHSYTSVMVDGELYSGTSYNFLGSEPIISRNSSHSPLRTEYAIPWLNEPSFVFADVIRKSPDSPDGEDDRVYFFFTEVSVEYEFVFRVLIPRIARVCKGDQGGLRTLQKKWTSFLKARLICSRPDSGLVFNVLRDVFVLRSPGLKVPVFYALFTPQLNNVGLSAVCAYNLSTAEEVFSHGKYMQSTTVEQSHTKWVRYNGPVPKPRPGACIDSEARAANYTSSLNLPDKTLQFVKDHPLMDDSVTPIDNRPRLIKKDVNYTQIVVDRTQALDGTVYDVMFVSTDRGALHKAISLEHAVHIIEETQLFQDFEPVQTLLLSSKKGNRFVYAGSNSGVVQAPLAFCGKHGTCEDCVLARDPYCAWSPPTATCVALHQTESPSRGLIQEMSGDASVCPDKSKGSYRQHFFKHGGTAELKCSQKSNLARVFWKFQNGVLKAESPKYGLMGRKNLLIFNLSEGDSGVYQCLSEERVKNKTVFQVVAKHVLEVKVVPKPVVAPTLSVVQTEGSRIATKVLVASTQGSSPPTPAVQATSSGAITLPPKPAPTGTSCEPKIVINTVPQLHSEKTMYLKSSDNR
The test is described as follows: ELISA method of Friguet et al.; column head 'Affinity (nM) IC50 ELISA'; antigen not named. The method, then: Antibody affinity was measured according to the ELISA method described in Friguet et al. (1985) J Immunol Methods 77(2):305-19.

For test [4], the target named is T1, human CD100-Fc. Briefly: ELISA on CD100-Fc antigen.
Test [5] deals with T3, BSA (UniProt P02769 25-607).
T3 construct: Negative control antigen
Briefly: ELISA.

In test [6] the target is T4, human serum albumin (human, UniProt P02768 25-609).
T4 construct: Negative control antigen
Briefly: ELISA.

Test [7] has as its target T5, streptavidin (UniProt P22629 37-163, limits assumed).
T5 construct: Negative control antigen
The test is described as follows: ELISA.

The target in test [8] is T6, huErb2-Fc (human, UniProt P04626 23-652).
T6 construct: Negative control antigen; also called huErb2-Fc antigen
The test is described as follows: ELISA on huErb2-Fc antigen (Neg Ctrl).

For test [9], the target named is T2, Human CD100. Briefly: affinity testing, reference value of MAb 1808 on the same day; unit not printed (nM as in Table 3); MAb 1808 reference on the day MAb 2202 was measured.
In test [10] the target is T2, Human CD100. The test is described as follows: affinity testing, reference value of MAb 1808 on the same day; unit not printed (nM as in Table 3); MAb 1808 reference on the day MAb 2220 was measured.
Test [11] concerns the target T2, Human CD100. Briefly: affinity testing, reference value of MAb 1808 on the same day; unit not printed (nM as in Table 3); MAb 1808 reference on the day MAb 2216 was measured.
In test [12] the target is T2, Human CD100. The test is described as follows: affinity testing, reference value of MAb 1808 on the same day; unit not printed (nM as in Table 3); MAb 1808 reference on the day MAb 2144 was measured.
In test [13] the target is T6, huErb2-Fc. Briefly: ELISA.
Test [14] addresses T2, Human CD100. The test is described as follows: affinity testing, reference value of MAb 1808 on the same day; unit not printed (nM as in Table 3); MAb 1808 reference on the day MAb 2139 was measured.
The target in test [15] is T2, Human CD100. The test is described as follows: affinity testing, reference value of MAb 1808 on the same day; unit not printed (nM as in Table 3); MAb 1808 reference on the day MAb 2208 was measured.
In test [16] the target is T2, Human CD100. Briefly: affinity testing, reference value of MAb 1808 on the same day; unit not printed (nM as in Table 3); MAb 1808 reference on the day MAb 2191 was measured.
Test [17] concerns the target T2, Human CD100. Briefly: affinity testing, reference value of MAb 1808 on the same day; unit not printed (nM as in Table 3); MAb 1808 reference on the day MAb 2163 was measured.
Test [18] concerns the target T2, Human CD100. Briefly: affinity testing, reference value of MAb 1808 on the same day; unit not printed (nM as in Table 3); MAb 1808 reference on the day MAb 2117 was measured.
Test [19] addresses T2, Human CD100. The test is described as follows: affinity testing, reference value of MAb 1808 on the same day; unit not printed (nM as in Table 3); MAb 1808 reference on the day MAb 2125 was measured.
For test [20], the target named is T2, Human CD100. Briefly: affinity testing, method and unit not printed in Example 10 (nM as in Table 3); mutant value, before the parentheses.

T3 sequence (P02769 25-607 limits assumed): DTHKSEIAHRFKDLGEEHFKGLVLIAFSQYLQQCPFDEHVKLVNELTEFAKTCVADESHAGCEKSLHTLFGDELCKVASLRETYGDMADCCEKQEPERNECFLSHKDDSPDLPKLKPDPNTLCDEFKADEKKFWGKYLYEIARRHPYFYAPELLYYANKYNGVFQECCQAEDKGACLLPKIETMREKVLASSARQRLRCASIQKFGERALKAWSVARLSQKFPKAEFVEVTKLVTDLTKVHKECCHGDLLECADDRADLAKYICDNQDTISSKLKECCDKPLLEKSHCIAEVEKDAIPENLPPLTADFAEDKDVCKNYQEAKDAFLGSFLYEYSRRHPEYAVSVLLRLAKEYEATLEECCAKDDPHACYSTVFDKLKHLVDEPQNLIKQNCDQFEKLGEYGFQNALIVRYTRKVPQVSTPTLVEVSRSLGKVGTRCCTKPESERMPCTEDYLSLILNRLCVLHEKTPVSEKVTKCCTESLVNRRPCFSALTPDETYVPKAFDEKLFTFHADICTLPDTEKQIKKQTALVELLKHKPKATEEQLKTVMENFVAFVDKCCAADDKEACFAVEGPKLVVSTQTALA
T5 sequence (P22629 37-163 limits assumed): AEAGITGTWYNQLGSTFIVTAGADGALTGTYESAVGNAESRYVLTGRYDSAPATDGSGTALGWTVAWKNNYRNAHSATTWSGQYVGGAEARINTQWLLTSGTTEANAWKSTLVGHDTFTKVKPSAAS
T4 sequence (P02768 25-609 limits assumed): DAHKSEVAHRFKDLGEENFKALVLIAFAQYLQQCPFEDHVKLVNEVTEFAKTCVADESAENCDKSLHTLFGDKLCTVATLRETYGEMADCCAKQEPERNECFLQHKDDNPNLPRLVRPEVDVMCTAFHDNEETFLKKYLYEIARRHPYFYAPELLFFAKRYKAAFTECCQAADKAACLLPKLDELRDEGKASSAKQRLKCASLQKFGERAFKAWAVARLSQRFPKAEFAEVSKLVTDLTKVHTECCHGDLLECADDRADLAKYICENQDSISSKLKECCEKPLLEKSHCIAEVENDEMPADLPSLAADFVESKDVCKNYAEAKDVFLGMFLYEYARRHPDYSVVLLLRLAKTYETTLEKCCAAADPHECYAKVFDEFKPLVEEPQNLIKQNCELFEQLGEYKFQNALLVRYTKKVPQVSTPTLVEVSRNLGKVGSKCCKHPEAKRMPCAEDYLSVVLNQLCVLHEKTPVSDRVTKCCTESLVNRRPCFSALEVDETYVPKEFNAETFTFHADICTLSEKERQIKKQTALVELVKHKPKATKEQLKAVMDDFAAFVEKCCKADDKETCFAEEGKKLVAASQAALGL

B1: BD16 (antibody, V domains shown)
VH: EVQLQQSGPELVKPGASVKMSCKASGYTFTDYYMDWVKQSHGESFEWIGRVNPYHGGATYNQKFKGKATLTVDKSSRTAYMELNSLTYEDSAVYYCAREENSYDGYYGMDYWGQGTTVTVSS
VL: DIVLTQSPSSLSVSAGEKVTMDCKSSQSLFNSGNQKNYLAWYHQKPGQPPKLLIYGASTRESGVPDRFTGSGSGTDFTLTISSVQAEDLAVYYCQNDHTYPYTFGGGTKLEIK
notes: Murine hybridoma anti-human CD100 antibody; also called mouse BD16; BD16 mouse MAb
The term Kd denotes the concentration at which binding is half-saturated. Consider B1, for which the “IC50 (read off the curve)” value was roughly 0.03 µg/mL in test [1] and roughly 0.02 µg/mL in test [2]. The same molecule displayed a Kd in test [3] of 0.13 nM.

B2: MAb 657 (antibody, human IgG1, V domains shown)
VH: QVQLVQSGAEVKKPGSSVKVSCKASGYTFTDYYMDWVRQAPGQGLEWIGRVNPYHGGATYNQKFKGKATITVDKSTSTAYMELSSLRSEDTAVYYCAREENSYDGYYGMDYWGQGTLVTVSS
VL: DIVMTQSPLSLPVSPGEPATINCKSSQSLFNSGNQKNYLAWYLQKPGQPPKLLIYGASTRESGVPDRFSGSGSGTDFTLTISSLQAEDVAVYYCQNDHTYPYTFGQGTKLEIK
notes: Humanized BD16, human IgG1; also called H1235/L284
Broadly, the EC50 (read off the curve) is the concentration giving half of the maximal effect. With B2, in [4], the 50% effective concentration (EC50 (read off the curve)) was roughly 0.03 µg/mL. Also, the binding result is “no binding” in test [5], “no binding” in test [6], “no binding” in test [7] and “no binding (tested: 500 ng/ml)” in test [8]. In [3], this molecule gave a Kd of 0.12 nM.

B3: MAb 1808 (antibody, human IgG4, V domains shown)
VH: QVQLVQSGAEVKKPGSSVKVSCKASGYTFTDYYMDWVRQAPGQGLEWMGRVNPYHGGATYNQKFKGRVTITADKSTSTAYMELSSLRSEDTAVYYCAREENSYDGYYGMDYWGQGTLVTVSS
VL: DIVMTQSPLSLPVSPGEPATINCKSSQSLFNSGNQKNYLAWYLQKPGQPPKLLIYGASTRESGVPDRFSGSGSGTDFTLTISSLQAEDVAVYYCQNDHTYPYTFGQGTKLEIK
notes: Humanized BD16, fully human frameworks, human IgG4; also called H1651/L284
For the molecule B3, the Kd in [9] worked out at 0.12 nM; in test [10] it was 0.12 nM; in [11], 0.12 nM; in test [12], 0.5 nM; in test [14], 0.71 nM; in test [15], 0.12 nM. In addition, the Kd in test [16] is 0.13 nM; in test [17], 0.12 nM; in [18], 0.57 nM; in test [3], 0.13 nM; in test [19], 0.57 nM. The binding result in test [5], in [13], in test [6] and in [7] was “no binding” in each case.

B4: MAb 2191 (antibody, V domains shown)
VH: QVQLVQSGAEVKKPGSSVKVSCTASGYTFTDYYMDWVRQAPGQGLEWMGRVNPYHGGATYNQKFKGRVTITADKSTSTAYMELSSLRSEDTAVYYCAREENSYTGYYGMDYWGQGTLVTVSS
VL: DIVMTQSPLSLPVSPGEPATINCKSSQSLFNSGNQKNYLAWYLQKPGQPPKLLIYGASTRESGVPDRFSGSGSGTDFTLTISSLQAEDVAVYYCQNDHTYPYTFGQGTKLEIK
notes: Double mutant of H1651 with L284; also called H1651 K23T D104T with L284
Take B4: the Kd in test [20] came out at 0.09 nM.
